{"source": "patent US20160200831A1", "about": "(Sanofi, published 2016)", "binders": {"B1": {"name": "A44-hv2 (antibody, V domains shown)", "VH": "EMQLQESGPGLVKPSETLSLTCSVTGDSMTNGYWNWIRKFPGKGLEYMGYITYSGSTYYNPSLKGRISITRNTSKNQYYLKLSSVTTADTATYYCARWHYGSPYYFDYWGQGTTLTVSS", "VL": "DIKMTQSPSSVSVSPGQTVTITCKASQDINSYLSWLQQKPGQSPKTLIYRANRSVDGVPSRFSGSGSGQDYSLTISSLQAMDEGIYYCLQYDEFPPTFGGGTKLTIK", "notes": "humanized A44, HEK293; constant regions as for A44-hv1; also called LC1b x HC1b; variant 2"}, "B2": {"name": "B28 (antibody, mouse IgG2b, V domains shown)", "VH": "QVQLQQSGAELMKPGASVKISCKATGYTFSISWIEWIKQRPGGLEWIGKILPGSGGANYNEKFKGKATVTADTSSNTVYMQLSSLTSEDSAVYYCARLSTGTRGAFDYWGQGTTLTVSS", "VL": "DIQLTQSPASLSASVGATVTITCRASENVYSYLAWYQQKQGKSPQLLVYNAKTLAEGVPSRFSGSGSGTQFSLKINYLQPEDFGSYYCQHHYGTPPTFGGGTKVEIKR", "notes": "mouse IgG2b/kappa; also called mB28; B28 (IgG2b/k)"}}, "key": {"human PAI-1 [1]": {"molecular_target": "T1, human PAI-1 (human, UniProt P05121 24-402)", "T1 sequence (P05121 24-402 limits assumed)": "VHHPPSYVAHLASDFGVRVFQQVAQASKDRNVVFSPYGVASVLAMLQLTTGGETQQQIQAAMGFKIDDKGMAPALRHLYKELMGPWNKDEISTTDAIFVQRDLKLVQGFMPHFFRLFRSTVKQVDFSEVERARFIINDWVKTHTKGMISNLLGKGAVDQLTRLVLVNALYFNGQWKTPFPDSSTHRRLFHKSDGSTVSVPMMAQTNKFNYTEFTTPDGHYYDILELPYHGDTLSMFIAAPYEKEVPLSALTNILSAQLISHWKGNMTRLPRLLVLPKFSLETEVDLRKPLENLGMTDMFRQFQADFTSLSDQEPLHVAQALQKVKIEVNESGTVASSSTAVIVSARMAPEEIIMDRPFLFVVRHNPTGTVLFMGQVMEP", "assay": "cell-based or functional assay"}, "[2]": {"molecular_target": "T2, cyno PAI-1 captured on immobilized human vitronectin (cynomolgus monkey; human, UniProt P04004 20-478, limits assumed)", "T2 construct": "non-covalent complex formed on the chip; also called cPAI-1/Vn", "T2 sequence (chain, as listed by the source limits assumed, chain 1 of 2)": "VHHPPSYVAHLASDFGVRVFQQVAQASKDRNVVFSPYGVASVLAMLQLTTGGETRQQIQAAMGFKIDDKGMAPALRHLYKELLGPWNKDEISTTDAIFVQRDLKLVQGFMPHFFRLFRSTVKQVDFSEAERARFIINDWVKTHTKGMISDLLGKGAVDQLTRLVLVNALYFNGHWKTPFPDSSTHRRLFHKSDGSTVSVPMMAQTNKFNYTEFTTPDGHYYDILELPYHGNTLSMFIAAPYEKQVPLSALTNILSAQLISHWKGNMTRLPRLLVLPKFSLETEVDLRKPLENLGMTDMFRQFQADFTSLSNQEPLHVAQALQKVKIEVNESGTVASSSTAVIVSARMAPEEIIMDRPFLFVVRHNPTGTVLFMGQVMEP", "T2 sequence (P04004 20-478 limits assumed, chain 2 of 2)": "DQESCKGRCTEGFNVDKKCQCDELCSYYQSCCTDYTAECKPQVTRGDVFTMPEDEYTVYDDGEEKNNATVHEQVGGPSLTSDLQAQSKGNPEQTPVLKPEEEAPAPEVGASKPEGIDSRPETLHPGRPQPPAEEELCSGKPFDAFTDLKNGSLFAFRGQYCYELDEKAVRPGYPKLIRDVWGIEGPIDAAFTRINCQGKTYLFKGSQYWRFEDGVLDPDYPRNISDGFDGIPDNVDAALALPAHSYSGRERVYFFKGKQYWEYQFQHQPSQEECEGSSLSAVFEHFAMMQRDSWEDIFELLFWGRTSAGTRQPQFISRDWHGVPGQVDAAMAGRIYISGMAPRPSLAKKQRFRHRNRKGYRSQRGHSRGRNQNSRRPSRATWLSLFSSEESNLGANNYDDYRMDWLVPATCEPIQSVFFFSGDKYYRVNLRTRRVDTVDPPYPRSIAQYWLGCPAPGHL", "assay": "Biacore, cPAI-1 on vitronectin chip, two state reaction model"}, "[3]": {"molecular_target": "T3, human PAI-1 captured on immobilized human vitronectin (human, UniProt P04004 20-478)", "T3 construct": "non-covalent complex formed on the chip or plate; also called PAI-1/Vn complex; Vn captured hPAI-1", "T3 sequence (chain, as listed by the source limits assumed, chain 1 of 2)": "as the sequence (P05121 24-402 limits assumed) above", "T3 sequence (P04004 20-478 limits assumed, chain 2 of 2)": "as the sequence (P04004 20-478 limits assumed, chain 2 of 2) above", "assay": "Biacore, hPAI-1 on vitronectin chip, two state reaction model"}, "[4]": {"molecular_target": "T2, cyno PAI-1 captured on immobilized …", "assay": "Biacore, cPAI-1 on vitronectin chip, two state reaction model (ka1)"}, "[5]": {"molecular_target": "T2, cyno PAI-1 captured on immobilized …", "assay": "Biacore, cPAI-1 on vitronectin chip, two state reaction model (kd1)"}, "[6]": {"molecular_target": "T3, human PAI-1 captured on immobilized …", "assay": "Biacore, hPAI-1 on vitronectin chip, two state reaction model (kd1)"}, "[7]": {"molecular_target": "T3, human PAI-1 captured on immobilized …", "assay": "Biacore, hPAI-1 on vitronectin chip, two state reaction model (ka1); two state reaction model, ka1 is the first-step rate"}, "[8]": {"molecular_target": "T4, glycosylated human PAI-1 (active form) (human, UniProt P05121 24-402, glycosylated)", "T4 sequence (P05121 24-402 limits assumed)": "as the sequence (P05121 24-402 limits assumed) above", "assay": "cell-based or functional assay"}, "[9]": {"molecular_target": "T4, glycosylated human PAI-1 (active form)", "assay": "cell-based or functional assay", "remark": "listed apart in the source"}, "[10]": {"molecular_target": "T4, glycosylated human PAI-1 (active form)", "assay": "Biacore (summary table)", "method": "(§1) In kinetics measurement, the antibodies were evaluated in reverse at 25° C. In the reverse assay, PAI-1 antibodies were captured to the anti-mouse IgG Fc antibody surface prepared on CM5 chip followed by injecting the serial 2× dilutions of PAI-1 proteins (human or cyno) starting at 40 nM. A high flow rate was chosen at 50 ul/min to avoid mass transportation limitation. Two thousand seconds was allowed for dissociation time to accommodate for the slow off rate of the selected antibodies. The chip was regenerated by glycine-HCl, pH 1.7 buffer after each round of antibody-PAI-1 binding. Kinetics data analysis was performed using Biacore BIAevaluation software. The sensorgrams were double-referenced by subtracting the reference flow cell values and the blank buffer values. The sensorgrams were fitted by using the simulated kinetics 1:1 (Langmuir) model with local Rmax."}, "human PAI-1 [11]": {"molecular_target": "T1, human PAI-1", "assay": "cell-based or functional assay", "remark": "listed apart in the source"}, "human PAI-1 [12]": {"molecular_target": "T1, human PAI-1", "assay": "Biacore, hybridoma supernatant; hybridoma supernatant, off-rate screen (class, not a fitted rate)", "method": "In the Biacore reverse screening assay, ELISA positive hybridoma supernatants were selected and filtered through 0.2 μm filters before being injected onto Biacore chip surface. Each hybridoma supernatant was injected onto one flow cell of flow cells Fc2-Fc4 and the IgG in the hybridoma supernatant would be captured to the chip surface by anti-mouse IgG Fc mAb, while Fc1 was left alone as reference cells. Human PAI-1 protein in PBS was then injected to Fc1 to Fc4. PBS buffer was also injected over the chip surface as a blank. After subtracting signals of Fc1 and blank buffer runs, the binding affinity (KD)/disassociation rate (kd) of the antibody from the supernatants to PAI-1 protein was analyzed and ranked using Scrubber 2 software."}, "human PAI-1 [13]": {"molecular_target": "T1, human PAI-1", "assay": "Biacore reverse assay, mAb captured by anti-mouse IgG Fc, 25 C; reverse assay: B28 captured by anti-mouse IgG Fc, PAI-1 injected, 25 C", "method": "as §1"}}}
{"binder": "B1", "values": [{"measurement": "Chromogenic Assay IC50", "setting": "human PAI-1 [1]", "result": 0.6, "unit": "nM"}, {"measurement": "Kd", "setting": "[2]", "result": 0.137, "unit": "nM"}, {"measurement": "Kd", "setting": "[3]", "result": 0.135, "unit": "nM"}, {"measurement": "kon", "setting": "[4]", "result": "2.3e+06", "unit": "M⁻¹ s⁻¹"}, {"measurement": "koff", "setting": "[5]", "result": 0.000314, "unit": "s⁻¹"}, {"measurement": "koff", "setting": "[6]", "result": 0.000403, "unit": "s⁻¹"}, {"measurement": "kon", "setting": "[7]", "result": "2.99e+06", "unit": "M⁻¹ s⁻¹"}]}
{"binder": "B2", "values": [{"measurement": "plasmin generation, hepatic stellate cells, IC50abs", "setting": "[8]", "result": 7.28, "unit": "nM"}, {"measurement": "plasmin generation, hepatic stellate cells, Imax", "setting": "[8]", "result": 90, "unit": "%"}, {"measurement": "Chromogenic Assays", "setting": "[9]", "result": 1.8, "unit": "nM"}, {"measurement": "Plasmin Generation", "setting": "[9]", "result": 7.28, "unit": "nM"}, {"measurement": "Kd", "setting": "[10]", "result": 0.65, "unit": "nM"}, {"measurement": "EC50, % neutralization of hPAI-1 (chromogenic assay)", "setting": "human PAI-1 [11]", "result": 2.3, "unit": "nM"}, {"measurement": "koff", "setting": "human PAI-1 [12]", "result": "≤ 0.0001", "unit": "s⁻¹"}, {"measurement": "Kd", "setting": "human PAI-1 [13]", "result": 0.65, "unit": "nM"}, {"measurement": "koff", "setting": "human PAI-1 [13]", "result": 0.000461, "unit": "s⁻¹"}]}
